Bridge positions count the residues as written; N and C are the ends. Square brackets hold non-standard residues; d marks the D form. Peptide text beside a SMILES is read from it. * marks the point of attachment. DO3A(CH2CH2SO2CH2CH2) = O=C(O)CN1CCN(CCS(=O)(=O)CC*)CCN(CC(=O)O)CCN(CC(=O)O)CC1; Ala(4-thiazolyl) = N[C@@H](Cc1cscn1)C(=O)O
Key:
[1] = biological target: T1, GCGR in human liver sections (Homo sapiens, UniProt P47871); assay: in vitro autoradiography, liver sections; assay type: binding
T1 construct: tissue Uppsala Biobank (sample collection 827); host or cells: frozen human liver sections
Method: Biopsies from donor human liver and pancreas were obtained from Uppsala Biobank (sample collection 827), and their use was approved by local ethical review board (EPN 2015/401).
Sections were added in duplicates in each individual assay, and each experiment was repeated at least three times with different batches of radioligand, except for rat sections that were only performed in one assay.
After incubation, the sections were washed three times in 150 mL PBS. Sections were carefully dried at 37 °C and then exposed against a digital phosphorimager plate overnight together with a 10-μl droplet of radioactive reference (cross-calibrated against a gamma counter) on an absorbent paper attached to an object glass. The phosphor imager plates were scanned using a Cyclone Plus Phosphor imager (Perkin Elmer) at 600 dpi, and the resulting autoradiograms analyzed by ImageJ software (NIH, Bethesda). Pixel values in counts/mm^2 were converted to Bq/mm^2 by the included reference. Bq/mm^2 was further converted to fmol/mm^2 by the known specific radioactivity (fmol/Bq) of each batch of radiopharmaceutical.

[2] = rat in vivo distribution (ex vivo organ counting); design: species or system Sprague Dawley rats; conditions: male, Sprague Dawley, iv, total radioactivity, i.v.
Method: The in vivo distribution over time was performed to identify the optimal time point for an in vivo blocking study and to calculate the residence time for dosimetry (see detail below). Thus, measurement at more time points was prioritized over repetitions at individual time points.
The animals were kept at a constant temperature (25 °C) and humidity (50%) in a 12-h light-dark cycle. Food and water were provided ad libitum.
Each radiotracer was administered into the tail vein of conscious animals as a bolus in 0.5–0.6 mL of PBS (pH 7.4) as vehicle. […] Given the constraints of the specific radioactivity for each radioligand, the dosing was designed to minimize the given peptide mass (in order to stay below mass effect levels) while still yielding enough radioactive signal for well counter measurements.
At pre-determined post injection time points (5, 10, 20, 40, 60, 90, 120, and 180 min), two animals per each point were euthanized by CO2. Tissues were immediately extracted and weighed, and the radioactive content was measured in the well counter. […] The well counter readings were decay corrected to the time of injection and the mass of the extracted tissues and expressed as Bq/cc. […]

[3] = human predicted dosimetry (OLINDA/EXM 1.1, from rat biodistribution)
Method: The dosimetry calculations were performed as described previously for [^68Ga]Ga-DO3A-VS-Cys^40-Exendin4 [11].
Briefly, animal-derived tissue uptake was normalized to that of human tissues (using tissue weights of whole body adult reference male and female phantoms). The normalized SUVs were then un-decay corrected to their respective time point to reflect the actual radiation burden in each tissue. The tissue residence times (MBq-h/MBq) were assessed by trapezoidal approximation of the un-decay-corrected human SUV biodistribution data. The tissue washout from the last time point (180 min) to infinity was estimated by a single mono-exponential fit.
The estimation of the absorbed dose was performed by the OLINDA/EXM 1.1 software (Vanderbilt University, USA) where the calculations were based on the adult reference male or female phantoms to obtain the intended absorbed dose estimate in humans (ICRP60). The organ-specific doses are reported as mGy/MBq (effective dose as mSv/MBq). The amount of MBq that can be safely administered annually (MBq/year) was calculated for each organ as well as the effective dose, by dividing the limiting dose (10 mSv/year for the effective dose, 150 mGy/year for all tissues except for the red marrow and uterus with 50 mGy/year) by the dose (mGy/MBq or mSv/MBq).

[4] = extrapolated from rat biodistribution

T1 sequence (P47871 26-477): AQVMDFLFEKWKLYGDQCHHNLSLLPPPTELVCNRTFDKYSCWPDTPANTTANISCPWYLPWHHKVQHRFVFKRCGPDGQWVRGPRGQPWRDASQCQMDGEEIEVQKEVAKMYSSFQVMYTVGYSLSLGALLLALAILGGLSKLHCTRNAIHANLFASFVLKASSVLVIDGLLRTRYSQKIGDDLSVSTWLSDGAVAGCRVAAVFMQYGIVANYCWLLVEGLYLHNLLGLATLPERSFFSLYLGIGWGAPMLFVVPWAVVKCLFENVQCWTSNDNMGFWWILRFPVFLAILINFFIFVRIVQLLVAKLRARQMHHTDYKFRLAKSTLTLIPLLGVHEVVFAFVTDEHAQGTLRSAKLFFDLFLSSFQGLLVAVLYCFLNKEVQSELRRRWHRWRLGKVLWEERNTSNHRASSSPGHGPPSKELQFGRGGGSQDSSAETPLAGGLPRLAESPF

CC[C@H](C)[C@H](NC(=O)[C@H](Cc1ccccc1)NC(=O)[C@H](CCC(=O)O)NC(=O)[C@@H]1CCCCNC(=O)CC[C@H](NC(=O)[C@H](CC(=O)O)NC(=O)[C@H](CC(C)C)NC(=O)[C@H](CCC(N)=O)NC(=O)[C@H](CCCCN)NC(=O)[C@H](CO)NC(=O)[C@H](Cc2ccc(O)cc2)NC(=O)[C@H](CC(=O)O)NC(=O)[C@H](CO)NC(=O)[C@@H](NC(=O)[C@H](Cc2ccccc2)NC(=O)[C@@H](NC(=O)CNC(=O)[C@H](CCC(N)=O)NC(=O)[C@@H](CO)NC(=O)[C@@H](N)Cc2cscn2)[C@@H](C)O)[C@@H](C)O)C(=O)N[C@@H](CCC(N)=O)C(=O)N[C@@H](CCCNC(=N)N)C(=O)N[C@@H](C)C(=O)N1)C(=O)N[C@@H](CCC(=O)O)C(=O)N[C@@H](Cc1c[nH]c2ccccc12)C(=O)N[C@@H](CC(C)C)C(=O)N[C@@H](CC(C)C)C(=O)N[C@@H](C)C(=O)N[C@H](C(=O)NCC(=O)N1CCC[C@H]1C(=O)N[C@@H](CCC(=O)O)C(=O)N[C@@H](CO)C(=O)NCC(=O)N[C@@H](C)C(=O)N1CCC[C@H]1C(=O)N1CCC[C@H]1C(=O)N1CCC[C@H]1C(=O)N[C@@H](CO)C(=O)N[C@@H](CSCCS(=O)(=O)CCN1CCN(CC(=O)O)CCN(CC(=O)O)CCN(CC(=O)O)CC1)C(N)=O)[C@@H](C)O [[^68Ga]Ga-DO3A-S01-GCG, metal not drawn] (H-[Ala(4-thiazolyl)][dS]QGTFTSDYSKQLDEQRAKEFIEWLLATGPESGAPPPSC(DO3A(CH2CH2SO2CH2CH2))-NH2; lactam 16-20)
effect of GLP-1 in excess on tracer binding to liver sections ([1]; 1 μM GLP-1, n = 3): did not induce inhibition
inhibition of tracer binding to liver sections by co-incubation with own precursor peptide ([1]; 10 μM precursor, n = 3): did not increase the degree of inhibition
SUV ([2]; liver, 3.6 ug/kg, after 20 min, read-out: uptake in the liver, plateau): 3 SUV
tissue to tissue ratio ([2]; liver/blood, after 90 min): > 30
human predicted absorbed dose, kidneys [3, 4]: 0.53 mGy/MBq
human predicted whole body effective dose [3, 4]: 20.2 μSv/MBq
calculated maximal annual dosing, limited by whole body effective dose ([3]; limit 10 mSv/year): 495 MBq
calculated maximal annual dosing, by bone marrow absorbed dose ([3]; limit 50 mGy/year): > 2000 MBq
calculated maximal annual dosing, limited by kidney dose ([3]; limit 150 mGy/year): 278 MBq

— article PMC6377692 (EJNMMI Research, 2019)
